The record followed here is PMC10786891, “Massively parallel profiling of RNA-targeting CRISPR-Cas13d”.

Substitutions are numbered along the chain they refer to. Numbers in names are those of the source.

T1: EsCas13d, nuclease-dead (Eubacterium siraeum, UniProt B0MS50, R295A;H300A;R849A;H854A)
T1 sequence: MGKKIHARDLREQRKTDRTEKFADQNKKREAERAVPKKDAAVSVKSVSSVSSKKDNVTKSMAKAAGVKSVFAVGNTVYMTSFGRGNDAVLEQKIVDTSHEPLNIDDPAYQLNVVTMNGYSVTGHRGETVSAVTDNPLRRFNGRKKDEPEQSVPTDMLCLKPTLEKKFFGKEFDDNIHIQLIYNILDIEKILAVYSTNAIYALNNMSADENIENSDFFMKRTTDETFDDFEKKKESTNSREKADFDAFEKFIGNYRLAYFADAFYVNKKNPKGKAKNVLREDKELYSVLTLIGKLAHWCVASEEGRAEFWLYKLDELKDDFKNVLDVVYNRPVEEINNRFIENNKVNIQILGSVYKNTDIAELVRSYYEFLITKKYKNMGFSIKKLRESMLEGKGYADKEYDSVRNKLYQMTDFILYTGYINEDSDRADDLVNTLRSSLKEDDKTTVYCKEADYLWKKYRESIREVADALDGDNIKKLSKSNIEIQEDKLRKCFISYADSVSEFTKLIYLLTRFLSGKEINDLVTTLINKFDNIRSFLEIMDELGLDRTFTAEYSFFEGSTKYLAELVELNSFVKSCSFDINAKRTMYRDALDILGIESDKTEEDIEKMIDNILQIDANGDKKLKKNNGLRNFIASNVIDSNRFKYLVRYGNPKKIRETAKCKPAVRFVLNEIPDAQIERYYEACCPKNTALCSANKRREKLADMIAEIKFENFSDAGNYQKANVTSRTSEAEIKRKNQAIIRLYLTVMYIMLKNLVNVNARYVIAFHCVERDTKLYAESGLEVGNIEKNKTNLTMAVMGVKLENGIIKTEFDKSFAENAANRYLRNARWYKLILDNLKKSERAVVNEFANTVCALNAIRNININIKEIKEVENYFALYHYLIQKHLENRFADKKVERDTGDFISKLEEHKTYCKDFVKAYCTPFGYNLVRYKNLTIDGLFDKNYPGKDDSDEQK

B1: target 2 MT 5'PFS GAG 3'PFS UAU (mixed)
RNA 1: CACCCGUGCAAAAUUGCAGGGGUCUAAAACCUUCUCCAAAUUGUUUCAUCCU
RNA 2: GGGAAUGGAUCCACAUCUACGAAUUCGAGAGGAUGAAACAAUUUGGAGAAGUAUAGAUCGGAAGAGCACACGU
B2: target 2 MT 5'PFS GAG 3'PFS UUG (mixed)
RNA 1: B1 RNA 1
RNA 2: B1 RNA 2 with A53U, U54G
B3: target 2 MT 5'PFS GCU 3'PFS AUC (mixed)
RNA 1: B1 RNA 1
RNA 2: B1 RNA 2 with A28C, G29U, U52A, A53U, U54C
B4: target 2 MT 5'PFS GAG 3'PFS UAC (mixed)
RNA 1: B1 RNA 1
RNA 2: B1 RNA 2 with U54C
B5: target 2 MT 5'PFS GCU 3'PFS AUU (mixed)
RNA 1: B1 RNA 1
RNA 2: B1 RNA 2 with A28C, G29U, U52A, A53U
B6: target 2 MT 5'PFS GAG 3'PFS UAA (mixed)
RNA 1: B1 RNA 1
RNA 2: B1 RNA 2 with U54A
B7: target 2 MT 5'PFS GCU 3'PFS AUA (mixed)
RNA 1: B1 RNA 1
RNA 2: B1 RNA 2 with A28C, G29U, U52A, A53U, U54A
B8: target 2 MT 5'PFS GCG 3'PFS CAG (mixed)
RNA 1: B1 RNA 1
RNA 2: B1 RNA 2 with A28C, U52C, U54G
B9: target 2 MT 5'PFS GCG 3'PFS CAC (mixed)
RNA 1: B1 RNA 1
RNA 2: B1 RNA 2 with A28C, U52C, U54C
B10: target 2 MT 5'PFS GCG 3'PFS CAA (mixed)
RNA 1: B1 RNA 1
RNA 2: B1 RNA 2 with A28C, U52C, U54A
B11: target 2 MT 5'PFS GAA 3'PFS CCG (mixed)
RNA 1: B1 RNA 1
RNA 2: B1 RNA 2 with G29A, U52C, A53C, U54G
B12: target 2 MT 5'PFS GCU 3'PFS AUG (mixed)
RNA 1: B1 RNA 1
RNA 2: B1 RNA 2 with A28C, G29U, U52A, A53U, U54G
B13: target 2 MT 5'PFS GAG 3'PFS UAG (mixed)
RNA 1: B1 RNA 1
RNA 2: B1 RNA 2 with U54G
B14: target 2 MT 5'PFS GCG 3'PFS CAU (mixed)
RNA 1: B1 RNA 1
RNA 2: B1 RNA 2 with A28C, U52C
B15: target 1 insG 3' of 1,insG 3' of 1 (mixed)
RNA 1: CACCCGUGCAAAAAUGCAGGGGUCUAAAACUGAGCGGAUAACCUCUCUAUGG
RNA 2: GGGAAUGGAUCCACAUCUACGAAUUCGUACCAUAGAGAGGUUAUCCGCUCAGGCCGAGAUCGGAAGAGCACACGU
B16: target 1 C2A,C4G (mixed)
RNA 1: B15 RNA 1
RNA 2: GGGAAUGGAUCCACAUCUACGAAUUCGUACCAUAGAGAGGUUAUCCGGUAACCGAGAUCGGAAGAGCACACGU

The target of this series is T1, EsCas13d, nuclease-dead. Put plainly: crRNA (strand 1, pre-loaded); Mg2+; 40 mM Tris-HCl pH 7.5, 150 mM NaCl, 6 mM MgCl2, 1 mM DTT, 0.1% Tween-20, 0.2 mg/ml BSA; 25 C; 10 min per concentration, then washed. The settings on record: tags: His6-TwinStrep-SUMO cleaved; N-terminal SNAP kept (SNAP-Surface 488); label: 3' end held by stalled T7 RNA polymerase.
B1 displayed a Kd of 0.0056 ± 0.0005 µM.

In turn, B2 yielded an equilibrium dissociation constant (Kd) of 0.0085 ± 0.001 µM. This Kd is about 1.5-fold higher than that of the molecule before.

The molecule B3 displayed a Kd of 0.0145 ± 0.0028 µM. Compared with the last molecule, the Kd is about 1.7-fold higher.

The molecule B4 registered a Kd of 0.0106 ± 0.0017 µM.

In turn, B5 had a Kd of 0.015 ± 0.004 µM.

B6 returned a Kd of 0.0051 ± 0.0007 µM.

In turn, B7 yielded a Kd of 0.0089 ± 0.0011 µM. This Kd is about 1.7-fold higher than that of the molecule before.

As for B8, the Kd amounted to 0.0094 ± 0.0009 µM.

B9: the affinity, expressed as Kd, was 0.0104 ± 0.0013 µM.

In turn, B10 returned a Kd of 0.0097 ± 0.0019 µM.

For B11, binding was put at a Kd of 0.0105 ± 0.0012 µM.

B12: the Kd was 0.022 ± 0.006 µM.

The molecule B13 gave a Kd of 0.0062 ± 0.0007 µM.

In turn, B14 showed a Kd of 0.013 ± 0.004 µM.

In the case of B15, binding was characterised by a dissociation constant (Kd) of 0.0086 ± 0.0005 µM.

As for B16, the Kd turned out to be 0.012 ± 0.0006 µM.

The Kd is the constant that tells how readily two partners part at equilibrium. A lower Kd goes with tighter binding.
